Data reported in patent publication US10087225B2, “Formulation of MK2 inhibitor peptides” (MOERAE MATRIX, INC., priority 2015, dated 2018).

Key:
Assay in all cases: Kinase Profiling Assay
Format in all cases: biochemical
Conditions in all cases: for % activity: 100 μM
[1] = target: PRK2(h) (Homo sapiens, UniProt Q16513)
[2] = target: T1, Tec(h)activated (Homo sapiens, UniProt P42680)
T1 sequence (P42680 1-631): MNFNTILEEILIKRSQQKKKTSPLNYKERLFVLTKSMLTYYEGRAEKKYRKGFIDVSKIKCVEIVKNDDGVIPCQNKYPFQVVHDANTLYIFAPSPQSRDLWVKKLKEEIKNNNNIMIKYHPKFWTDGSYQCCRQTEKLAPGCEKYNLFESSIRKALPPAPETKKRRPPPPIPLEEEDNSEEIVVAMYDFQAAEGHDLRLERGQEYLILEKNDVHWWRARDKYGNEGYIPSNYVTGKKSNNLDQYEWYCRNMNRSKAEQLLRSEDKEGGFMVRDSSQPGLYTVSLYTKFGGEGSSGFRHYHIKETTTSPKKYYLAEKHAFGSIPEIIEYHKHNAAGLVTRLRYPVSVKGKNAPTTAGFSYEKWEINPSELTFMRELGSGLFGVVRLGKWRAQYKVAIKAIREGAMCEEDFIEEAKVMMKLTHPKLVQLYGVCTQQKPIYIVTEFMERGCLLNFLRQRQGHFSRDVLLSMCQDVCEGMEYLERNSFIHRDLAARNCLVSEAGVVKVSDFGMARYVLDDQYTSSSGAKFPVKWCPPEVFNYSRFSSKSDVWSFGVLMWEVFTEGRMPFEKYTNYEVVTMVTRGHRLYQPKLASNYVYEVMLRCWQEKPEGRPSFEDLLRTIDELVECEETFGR

[3] = target: Met(Y1248D)(h) (Homo sapiens, UniProt P08581, Y1230D)
[4] = target: EphA4(h) (Homo sapiens, UniProt P54764)
EphA4(h), sequence (P54764 20-986): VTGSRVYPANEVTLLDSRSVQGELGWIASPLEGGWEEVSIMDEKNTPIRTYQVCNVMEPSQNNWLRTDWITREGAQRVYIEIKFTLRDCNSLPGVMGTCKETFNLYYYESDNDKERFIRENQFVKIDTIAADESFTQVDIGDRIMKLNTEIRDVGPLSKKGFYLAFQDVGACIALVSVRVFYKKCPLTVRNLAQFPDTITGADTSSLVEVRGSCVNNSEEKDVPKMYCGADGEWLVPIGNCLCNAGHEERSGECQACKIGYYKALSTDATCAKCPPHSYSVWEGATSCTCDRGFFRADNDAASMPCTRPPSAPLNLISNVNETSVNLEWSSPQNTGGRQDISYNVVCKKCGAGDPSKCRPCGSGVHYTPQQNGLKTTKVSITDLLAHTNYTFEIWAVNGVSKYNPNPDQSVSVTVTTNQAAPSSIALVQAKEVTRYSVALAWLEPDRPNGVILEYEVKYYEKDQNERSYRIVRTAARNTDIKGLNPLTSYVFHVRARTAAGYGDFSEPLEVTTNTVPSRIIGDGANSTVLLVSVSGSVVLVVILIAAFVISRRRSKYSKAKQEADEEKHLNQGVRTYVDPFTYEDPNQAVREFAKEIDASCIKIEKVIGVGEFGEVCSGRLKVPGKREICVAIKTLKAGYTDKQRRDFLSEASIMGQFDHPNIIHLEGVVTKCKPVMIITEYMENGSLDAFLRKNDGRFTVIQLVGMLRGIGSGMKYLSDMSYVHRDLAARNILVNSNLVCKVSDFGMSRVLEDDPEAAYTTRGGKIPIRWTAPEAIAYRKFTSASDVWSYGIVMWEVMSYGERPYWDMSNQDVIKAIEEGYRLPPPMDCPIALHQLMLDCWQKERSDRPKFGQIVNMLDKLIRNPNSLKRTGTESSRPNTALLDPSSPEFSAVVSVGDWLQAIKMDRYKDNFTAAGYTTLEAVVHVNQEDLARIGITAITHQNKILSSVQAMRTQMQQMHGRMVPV

[5] = target: T2, IRAK4(h) (Homo sapiens, UniProt Q9NWZ3)
T2 sequence (Q9NWZ3 1-460): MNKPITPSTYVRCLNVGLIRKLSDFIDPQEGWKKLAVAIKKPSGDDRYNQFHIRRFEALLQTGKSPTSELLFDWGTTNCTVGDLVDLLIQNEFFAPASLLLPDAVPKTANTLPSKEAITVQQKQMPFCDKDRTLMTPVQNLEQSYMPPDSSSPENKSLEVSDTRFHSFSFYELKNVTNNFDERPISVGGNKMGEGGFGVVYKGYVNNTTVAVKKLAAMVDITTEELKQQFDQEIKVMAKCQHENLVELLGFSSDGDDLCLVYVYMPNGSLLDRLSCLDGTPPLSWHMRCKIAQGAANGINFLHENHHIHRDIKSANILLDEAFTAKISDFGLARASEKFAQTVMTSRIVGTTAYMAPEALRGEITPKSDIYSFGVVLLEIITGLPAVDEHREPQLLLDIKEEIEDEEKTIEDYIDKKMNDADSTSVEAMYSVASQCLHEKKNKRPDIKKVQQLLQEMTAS

[6] = target: T3, Haspin(h) (Homo sapiens, UniProt Q8TF76)
T3 sequence (Q8TF76 1-798): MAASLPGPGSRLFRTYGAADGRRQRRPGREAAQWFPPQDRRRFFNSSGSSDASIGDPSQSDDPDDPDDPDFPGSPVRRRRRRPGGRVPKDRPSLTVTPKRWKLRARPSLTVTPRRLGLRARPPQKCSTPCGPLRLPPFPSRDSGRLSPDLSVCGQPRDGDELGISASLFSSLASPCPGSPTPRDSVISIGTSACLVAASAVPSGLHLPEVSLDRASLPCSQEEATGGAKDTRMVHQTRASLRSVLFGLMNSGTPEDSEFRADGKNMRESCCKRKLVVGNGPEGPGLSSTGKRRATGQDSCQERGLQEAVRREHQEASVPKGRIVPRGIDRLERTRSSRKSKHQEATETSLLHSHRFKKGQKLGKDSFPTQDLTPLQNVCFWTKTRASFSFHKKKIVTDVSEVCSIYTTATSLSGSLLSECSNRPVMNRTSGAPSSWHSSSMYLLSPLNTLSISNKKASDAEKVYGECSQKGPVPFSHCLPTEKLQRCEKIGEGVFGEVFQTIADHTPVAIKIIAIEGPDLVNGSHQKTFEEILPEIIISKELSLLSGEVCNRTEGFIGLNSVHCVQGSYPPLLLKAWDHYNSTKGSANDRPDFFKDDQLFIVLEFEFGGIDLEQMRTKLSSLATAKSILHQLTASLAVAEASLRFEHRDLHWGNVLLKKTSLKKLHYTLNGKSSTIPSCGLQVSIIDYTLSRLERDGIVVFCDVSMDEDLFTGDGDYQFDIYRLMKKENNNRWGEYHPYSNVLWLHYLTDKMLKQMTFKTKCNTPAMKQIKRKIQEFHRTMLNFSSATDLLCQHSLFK

[7] = target: T4, PKCζ(h) (Homo sapiens, UniProt Q05513)
T4 sequence (Q05513 1-592): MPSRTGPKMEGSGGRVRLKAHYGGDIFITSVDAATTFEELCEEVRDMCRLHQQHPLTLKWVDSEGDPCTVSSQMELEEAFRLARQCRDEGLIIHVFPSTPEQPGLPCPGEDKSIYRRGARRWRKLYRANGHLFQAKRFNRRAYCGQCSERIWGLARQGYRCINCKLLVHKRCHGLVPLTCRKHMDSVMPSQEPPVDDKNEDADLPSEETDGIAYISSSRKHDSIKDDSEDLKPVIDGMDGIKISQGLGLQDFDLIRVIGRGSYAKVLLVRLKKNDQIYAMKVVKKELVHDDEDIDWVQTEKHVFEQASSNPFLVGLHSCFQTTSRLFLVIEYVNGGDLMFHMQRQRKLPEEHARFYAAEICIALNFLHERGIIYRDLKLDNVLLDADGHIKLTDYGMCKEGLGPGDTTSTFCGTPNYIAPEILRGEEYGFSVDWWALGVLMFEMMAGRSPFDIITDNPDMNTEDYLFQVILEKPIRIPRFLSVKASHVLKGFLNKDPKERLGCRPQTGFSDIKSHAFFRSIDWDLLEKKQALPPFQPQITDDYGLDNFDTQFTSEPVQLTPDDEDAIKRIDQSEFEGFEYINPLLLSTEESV

PRK2(h), sequence (Q16513 whole entry): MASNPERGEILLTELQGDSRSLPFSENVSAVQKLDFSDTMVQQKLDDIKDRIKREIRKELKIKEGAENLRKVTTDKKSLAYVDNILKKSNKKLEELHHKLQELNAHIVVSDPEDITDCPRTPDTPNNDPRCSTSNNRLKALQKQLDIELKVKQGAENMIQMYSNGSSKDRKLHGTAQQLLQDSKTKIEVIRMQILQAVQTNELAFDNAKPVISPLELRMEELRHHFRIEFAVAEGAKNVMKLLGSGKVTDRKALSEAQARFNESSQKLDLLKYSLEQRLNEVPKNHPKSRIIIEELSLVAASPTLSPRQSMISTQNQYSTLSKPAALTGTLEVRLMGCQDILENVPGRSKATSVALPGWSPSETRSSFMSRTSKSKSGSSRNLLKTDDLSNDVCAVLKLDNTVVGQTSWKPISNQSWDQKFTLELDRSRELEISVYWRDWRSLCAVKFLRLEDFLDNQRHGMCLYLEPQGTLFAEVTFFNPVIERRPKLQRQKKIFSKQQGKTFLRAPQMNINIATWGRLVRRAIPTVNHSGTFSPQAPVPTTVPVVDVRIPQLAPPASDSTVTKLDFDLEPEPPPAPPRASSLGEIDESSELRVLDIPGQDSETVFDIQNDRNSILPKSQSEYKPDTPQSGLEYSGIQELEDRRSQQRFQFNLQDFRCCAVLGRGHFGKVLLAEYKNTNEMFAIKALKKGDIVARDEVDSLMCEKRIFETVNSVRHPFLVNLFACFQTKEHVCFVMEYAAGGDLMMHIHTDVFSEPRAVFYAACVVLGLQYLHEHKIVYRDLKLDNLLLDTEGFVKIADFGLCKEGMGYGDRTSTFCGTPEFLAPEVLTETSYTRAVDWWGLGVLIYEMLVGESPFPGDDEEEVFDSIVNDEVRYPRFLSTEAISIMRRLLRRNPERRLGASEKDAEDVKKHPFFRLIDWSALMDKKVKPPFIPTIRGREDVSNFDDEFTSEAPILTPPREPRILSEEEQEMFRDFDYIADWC

| Substance | activity at 100 µM [1] | activity at 100 µM [2] | activity at 100 µM [3] | activity at 100 µM [4] | activity at 100 µM [5] | activity at 100 µM [6] | activity at 100 µM [7] | % activity [1] | % activity [2] | % activity [3] | % activity [4] | % activity [5] | % activity [6] | % activity [7] |
| --- | --- | --- | --- | --- | --- | --- | --- | --- | --- | --- | --- | --- | --- | --- |
| H-YARAAARQARAKALARQLGVAA-OH [MMI-0100] | 72% | 100% | 87% | 110% | 100% | 127% | 82% |  |  |  |  |  |  |  |
| HRRIKAWLKKIKALARQLGVAA (Mammalian) [MMI-0500] |  |  |  |  |  |  |  | 7% | 33% | 218% | 48% | 3% | 25% | 7% |
| YARAAARQARAKALNRQLGVA (Mammalian) [MMI-0200] |  |  |  |  |  |  |  | 74% | 77% | 118% | 127% | 110% | 71% | 98% |
